# Assay results taken from paper PMC3715429.
# Target: EphrinA2 (EphA2) receptor tyrosine kinase (human (endogenous in HFF)) (UniProt P29317)
# Assay: co-IP; lysates of c-Cbl siRNA-transfected HFF cells infected with KSHV for 5 min; IP with anti-EphA2 antibody, Western blot for clathrin; compared with control siRNA cells
substance,measurement,value
clathrin heavy chain (from UniProt Q00610 1-1675) (natural protein),fold reduction of the co-IP in c-Cbl siRNA cells against control siRNA cells,8 fold
